Experimental data published in publication PMC9687869, “Redox Regulation of Signaling Complex between Caveolin-1 and Neuronal Calcium Sensor Recoverin” (Biomolecules, 2022).

B1: recoverin C39D mutant (Rec-C39D) (natural protein, UniProt P21457 1-202, looked up)
chain: MGNSKSGALSKEILEELQLNTKFTEEELSSWYQSFLKEDPSGRITRQEFQTIYSKFFPEADPKAYAQHVFRSFDANSDGTLDFKEYVIALHMTSAGKTNQKLEWAFSLYDVDGNGTISKNEVLEIVTAIFKMISPEDTKHLPEDENTPEKRAEKIWGFFGKKDDDKLTEKEFIEGTLANKEILRLIQFEPQKVKEKLKEKKL
modifications: N-terminal myristoyl group (myristoylation rate more than 95%)
notes: recoverin with C39D, which mimics oxidation of cysteine-39 to a sulfenic/sulfinic/sulfonic group; also called thiol oxidation mimicking mutant; oxidized monomer mimic
B2: disulfide dimer of recoverin (dRec) (natural protein)
chain: GNSKSGALSKEILEELQLNTKFTEEELSSWYQSFLKECPSGRITRQEFQTIYSKFFPEADPKAYAQHVFRSFDANSDGTLDFKEYVIALHMTSAGKTNQKLEWAFSLYDVDGNGTISKNEVLEIVTAIFKMISPEDTKHLPEDENTPEKRAEKIWGFFGKKDDDKLTEKEFIEGTLANKEILRLIQFEPQKVKEKLKEKKL
modifications: N-terminal myristoyl group; disulfide between the cysteine-39 residues of the two chains
B3: N-terminal fragment of caveolin-1 M1-R101 with N-terminal His6-tag (Cav) (domain or fragment, UniProt Q03135 1-101, looked up)
chain: MSGGKYVDSEGHLYTVPIREQGNIYKPNNKAMADELSEKQVYDAHTKEIDLVNRDPKHLNDDVVKIDFEDVIAEPEGTHSFDGIWKASFTTFTVTKYWFYR
notes: caveolin-1, N-terminal domain and oligomerization domain, residues M1-R101; Forms homogeneous oligomers in solution by DLS; the number of copies was not measured; It names pET-22b and an N-terminal His6-tag; also called Cav (1-101 aa) fragment; caveolin-1 fragment; source: E. coli BL21 Star (DE3), solubilised in guanidine hydrochloride, dialysed, purified (Ni-NTA)

Experiments:
Settings in all cases: both partners purified
[1] = molecular target: B3; test: pull-down; Cav or CavE covalently attached to BrCN-activated Sepharose CL-4B; 50 ug recoverin form; 20 mM Tris-HCl pH 7.5, 100 mM NaCl, 2 mM MgCl2, 2 mM EGTA (calcium-free); 30 min at room temperature; bound protein analysed by SDS-PAGE
[2] = molecular target: B2; test: SPR; Cav or CavE immobilised by amine coupling (ProteOn GLH chip); analyte 2.5-30 uM recoverin form; 10 mM HEPES pH 7.4, 150 mM NaCl, 2 mM DTT (none for dRec), 0.05% TWEEN 20, calcium-free (1 mM EDTA in the methods, 2 mM EGTA in Table 2); 25 C; heterogeneous ligand model
[3] = molecular target: T1, recombinant myristoylated recoverin, reduced monomer (Rec) (UniProt P21457 1-202, N-terminal myristoyl group (myristoylation rate more than 95%)); test: as above
T1 construct: recoverin, photoreceptor neuronal calcium sensor; also called intact recoverin; wild-type recoverin
T1 sequence (looked up): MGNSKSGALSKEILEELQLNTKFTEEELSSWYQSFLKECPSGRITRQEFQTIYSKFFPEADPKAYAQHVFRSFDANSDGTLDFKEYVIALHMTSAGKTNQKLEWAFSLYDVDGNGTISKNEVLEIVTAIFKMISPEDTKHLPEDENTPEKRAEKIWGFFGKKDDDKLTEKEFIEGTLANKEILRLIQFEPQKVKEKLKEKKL

[4] = molecular target: B1; test: as above
[5] = molecular target: B1; test: SPR; Cav or CavE immobilised by amine coupling (ProteOn GLH chip); analyte 2.5-30 uM recoverin form; 10 mM HEPES pH 7.4, 150 mM NaCl, 2 mM DTT (none for dRec), 0.05% TWEEN 20, with calcium (1 mM CaCl2 in the methods, 2 mM Ca2+ in Table 2); 25 C; heterogeneous ligand model

Binder | fold increase of the interaction against Rec (pull-down) [1] [fold] | Kd [2] [nM] | koff [2] [s⁻¹] | Kd [3] [nM] | koff [3] [s⁻¹] | Kd [4] [nM] | koff [4] [s⁻¹] | Kd [5] [nM] | koff [5] [s⁻¹]
B1 | 2 to 3 | – | – | – | – | – | – | – | –
B2 | 2 to 3 | – | – | – | – | – | – | – | –
B3 | – | 48.6 ± 1.1 | 2.44e-05 | 490 ± 160 | 0.000105 | 140 ± 44 | 0.000117 | 376 ± 173 | 0.000186
N-terminally tagged caveolin-1 fragment M1-R101 with Y14E substitution (CavE) (domain or fragment, UniProt Q03135 1-101, looked up, caveolin-1, residues M1-R101 with Y14E, which mimics phosphorylation at Y14; built on Cav; Forms larger oligomeric particles than Cav by DLS; also called caveolin-1 mutant Y14E; source: E. coli BL21 Star (DE3), solubilised in guanidine hydrochloride, dialysed, purified (Ni-NTA)) MSGGKYVDSEGHLETVPIREQGNIYKPNNKAMADELSEKQVYDAHTKEIDLVNRDPKHLNDDVVKIDFEDVIAEPEGTHSFDGIWKASFTTFTVTKYWFYR | – | 218 ± 87 | 8.08e-05 | 1110 ± 66 | 8.81e-05 | 329 ± 145 | 0.000172 | 629 ± 257 | 0.000202
